The text below walks through data of patent US20240368282A1 (BIOSCEPTRE AUST, published 2024).

One assay has as its target T1, CD33 (UniProt P20138 18-364, limits assumed).
T1 construct: whole, on cells; Endogenous on human cell lines; also called Siglec-3
Briefly: flow cytometry, anti-HIS antibody. In general terms: In flow cytometry, cells or beads pass a laser one at a time.

For another assay, the target named is T2, CD16 (human, UniProt P08637 17-254).
T2 construct: whole, on cells; CD16 is the antigen of the 3G8 arm of these molecules; also called FcγRIII
T2 sequence (P08637 17-254): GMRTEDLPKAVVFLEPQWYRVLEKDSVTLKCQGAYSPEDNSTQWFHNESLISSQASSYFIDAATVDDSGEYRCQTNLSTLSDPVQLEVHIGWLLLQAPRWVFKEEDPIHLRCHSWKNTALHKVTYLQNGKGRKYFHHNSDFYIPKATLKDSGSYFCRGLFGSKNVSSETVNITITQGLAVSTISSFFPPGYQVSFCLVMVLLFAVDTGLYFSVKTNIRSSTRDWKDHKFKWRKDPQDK
Nature of the assay: binding to NK cells (method not told).

The target in a further assay is T3, ROR1 (UniProt Q01973 30-937, limits assumed).
T3 construct: whole, on cells
Nature of the assay: flow cytometry, anti-HIS antibody.

Another assay addresses T4, CD37 (UniProt P11049 1-281, limits assumed).
T4 construct: whole, on cells
T4 sequence (looked up): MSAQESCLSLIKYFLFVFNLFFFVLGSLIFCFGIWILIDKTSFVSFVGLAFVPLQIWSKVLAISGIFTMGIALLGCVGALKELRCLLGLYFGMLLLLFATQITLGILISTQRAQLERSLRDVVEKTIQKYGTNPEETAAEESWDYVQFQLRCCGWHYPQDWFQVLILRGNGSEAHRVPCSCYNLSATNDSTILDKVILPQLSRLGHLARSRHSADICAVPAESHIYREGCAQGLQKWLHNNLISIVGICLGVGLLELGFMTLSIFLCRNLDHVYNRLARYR
Briefly: flow cytometry, anti-HIS antibody.

Another assay has as its target T5, CD79B (UniProt P40259 29-229, limits assumed).
T5 construct: whole, on cells
T5 sequence (looked up): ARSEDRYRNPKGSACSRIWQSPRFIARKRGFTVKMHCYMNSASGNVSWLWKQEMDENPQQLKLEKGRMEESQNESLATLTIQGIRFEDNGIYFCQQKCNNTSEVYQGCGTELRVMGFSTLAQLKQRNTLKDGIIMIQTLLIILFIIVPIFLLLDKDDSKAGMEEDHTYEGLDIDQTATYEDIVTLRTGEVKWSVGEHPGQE
Nature of the assay: flow cytometry, anti-HIS antibody.

T1 sequence (P20138 18-364 limits assumed): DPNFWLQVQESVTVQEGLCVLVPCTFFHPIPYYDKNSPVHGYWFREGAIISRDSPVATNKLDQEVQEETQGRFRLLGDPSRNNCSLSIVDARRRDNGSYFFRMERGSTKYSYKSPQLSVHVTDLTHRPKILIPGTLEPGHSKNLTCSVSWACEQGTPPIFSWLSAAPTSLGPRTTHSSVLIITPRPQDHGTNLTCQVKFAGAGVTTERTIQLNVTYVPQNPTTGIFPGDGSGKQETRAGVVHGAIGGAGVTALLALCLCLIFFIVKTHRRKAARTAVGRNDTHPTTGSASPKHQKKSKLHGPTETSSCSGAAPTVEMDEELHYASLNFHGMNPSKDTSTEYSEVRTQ

B1: CD33 BRiDGE (B031) (Fab, V domains shown)
VH: QVQLVQSGAEVKKPGSSVKVSCKASGYTFTDYNMHWVRQAPGQGLEWIGYIYPYNGGTGYNQKFKSKATITADESTNTAYMELSSLRSEDTAVYYCARGRPAMDYWGQGTLVTVSS
VL: DIQMTQSPSSLSASVGDRVTITCRASESVDNYGISFMNWFQQKPGKAPKLLIYAASNQGSGVPSRFSGSGSGTDFTLTISSLQPDDFATYYCQQSKEVPWTFGQGTKVEIKR
notes: 6xHis on both chains; also called CD33 bridging molecule; CD33 Fab
Turning to B1, the binding result in the assay with CD33 is listed as “binds”.

B2: OR_BiKE1 OR105 (nfP2X7 x CD16) (bispecific antibody)
chain: DIQMTQSPSSLSASVGDRVTITCRASQYIYDYLNWYQQKPGKAPKLLIYAASYLQSGVPSRFSGSGSGTDFTLTISSLQPEDFATYYCQQYHHPSTFGQGTKVEIKRGGGGSGGGGSGGGGSEVQLLESGGGLVQPGGSLRLSCAASGFTFRNHDMGWVRQAPGKGLEWVSAISGSGGSTYYANSVKGRFTISRDNSKNTLYLQMNSLRAEDTAVYYCAEPKPMDTEFDYRSPGTLVTVSSVEGGSGGSGGSGGSGGVDQVTLKESGPGILQPSQTLSLTCSFSGFSLRTSGMGVGWIRQPSGKGLEWLAHIWWDDDKRYNPALKSRLTISKDTSSNQVFLKIASVDTADTATYYCAQINPAWFAYWGQGTLVTVSSGGGGSGGGGSGGGGSDIVLTQSPASLAVSLGQRATISCKASQSVDFDGDSFMNWYQQKPGQPPKLLIYTTSNLESGIPARFSASGSGTDFTLNIHPVEEEDTATYYCQQSNEDPYTFGGGTKLEIKHHHHHH
As for B2, the binding result with CD16 was “binds”.

B3: ROR1 bridging molecule derived from ROR1 APC (WO2016016344A1_D10v3) (Fab, V domains shown)
VH: QVQLKESGPGLVAPSQTLSITCTVSGFSLTSYGVHWVRQPPGKGLEWLGVIWAGGFTNYNSALKSRLSISKDNSKSQVLLKMTSLQTDDTAMYYCARRGSSYSMDYWGQGTSVTVSS
VL: EIVLSQSPAITAASLGQKVTITCSASSNVSYIHWYQQRSGTSPRPWIYEISKLASGVPVRFSGSGSGTSYSLTISSMEAEDAAIYYCQQWNYPLITFGSGTKLEIQR
notes: Fab with E200 at the N-terminus of the light chain, 6xHis on both chains; also called B044; ROR-1, clone D10v3, B044-1 LC / B044-2_HC
In the case of B3, in the assay with ROR1, the binding result is listed as “binds”.

B4: OR_BiKE2 OR106 (CD16 x nfP2X7) (bispecific antibody)
chain: DIVLTQSPASLAVSLGQRATISCKASQSVDFDGDSFMNWYQQKPGQPPKLLIYTTSNLESGIPARFSASGSGTDFTLNIHPVEEEDTATYYCQQSNEDPYTFGGGTKLEIKGGGGSGGGGSGGGGSQVTLKESGPGILQPSQTLSLTCSFSGFSLRTSGMGVGWIRQPSGKGLEWLAHIWWDDDKRYNPALKSRLTISKDTSSNQVFLKIASVDTADTATYYCAQINPAWFAYWGQGTLVTVSSVEGGSGGSGGSGGSGGVDEVQLLESGGGLVQPGGSLRLSCAASGFTFRNHDMGWVRQAPGKGLEWVSAISGSGGSTYYANSVKGRFTISRDNSKNTLYLQMNSLRAEDTAVYYCAEPKPMDTEFDYRSPGTLVTVSSGGGGSGGGGSGGGGSDIQMTQSPSSLSASVGDRVTITCRASQYIYDYLNWYQQKPGKAPKLLIYAASYLQSGVPSRFSGSGSGTDFTLTISSLQPEDFATYYCQQYHHPSTFGQGTKVEIKRHHHHHH
notes: 3G8 scFv-linker-BIL03/WTB1 scFv-6xHis
In the case of B4, the binding result in the assay with CD16 was “binds”.

B5: CD37 bridging molecule derived from otlertuzumab (Fab, V domains shown)
VH: EVQLVQSGAEVKKPGESLKISCKGSGYSFTGYNMNWVRQMPGKGLEWMGNIDPYYGGTTYNRKFKGQVTISADKSISTAYLQWSSLKASDTAMYYCARSVGPFDSWGQGTLVTVSS
VL: EIVLTQSPATLSLSPGERATLSCRASENVYSYLAWYQQKPGQAPRLLIYFAKTLAEGIPARFSGSGSGTDFTLTISSLEPEDFAVYYCQHHSDNPWTFGQGTKVEIKR
notes: Fab with E200 at the N-terminus of the light chain, 6xHis on both chains; also called B026; CD37, Otlertuzumab, B026-1_LC / B026-2_HC
Regarding B5, the binding result in the assay with CD37 is recorded as “binds”.

B6: CD79B bridging molecule derived from polatuzumab (Fab, V domains shown)
VH: EVQLVESGGGLVQPGGSLRLSCAASGYTFSSYWIEWVRQAPGKGLEWIGEILPGGGDTNYNEIFKGRATFSADTSKNTAYLQMNSLRAEDTAVYYCTRRVPIRLDYWGQGTLVTVSS
VL: DIQLTQSPSSLSASVGDRVTITCKASQSVDYEGDSFLNWYQQKPGKAPKLLIYAASNLESGVPSRFSGSGSGTDFTLTISSLQPEDFATYYCQQSNEDPLTFGQGTKVEIKR
notes: Fab with E200 at the N-terminus of the light chain, 6xHis on both chains; also called B025; CD79B, Polatuzumab, B025-1 LC / B025-2_HC
Regarding B6, in the assay with CD79B, the binding result was “binds”.
